Numbered stars: 1 amine (or outer) side, 2 acyl side, 3 side chain; on linkers, the order of the positions; unused ones are H or OH. Bridge positions count the residues as written; N and C are the ends. Square brackets hold non-standard residues; d marks the D form. Side chains are listed from the residue outwards. Ends that are not written are not given here. * marks the point of attachment. C18 diacid = O=C(O)CCCCCCCCCCCCCCCCC(=O)*; γGlu = O=C(O)[C@H](CCC(=O)[*:2])N[*:1]; Aib = CC(C)(N)C(=O)O
T1: human amylin receptor (calcitonin receptor co-expressed with receptor activity modifying protein, RAMP3) (human, UniProt P30988 25-474; O60896 24-148)
T1 sequence (looked up) 1: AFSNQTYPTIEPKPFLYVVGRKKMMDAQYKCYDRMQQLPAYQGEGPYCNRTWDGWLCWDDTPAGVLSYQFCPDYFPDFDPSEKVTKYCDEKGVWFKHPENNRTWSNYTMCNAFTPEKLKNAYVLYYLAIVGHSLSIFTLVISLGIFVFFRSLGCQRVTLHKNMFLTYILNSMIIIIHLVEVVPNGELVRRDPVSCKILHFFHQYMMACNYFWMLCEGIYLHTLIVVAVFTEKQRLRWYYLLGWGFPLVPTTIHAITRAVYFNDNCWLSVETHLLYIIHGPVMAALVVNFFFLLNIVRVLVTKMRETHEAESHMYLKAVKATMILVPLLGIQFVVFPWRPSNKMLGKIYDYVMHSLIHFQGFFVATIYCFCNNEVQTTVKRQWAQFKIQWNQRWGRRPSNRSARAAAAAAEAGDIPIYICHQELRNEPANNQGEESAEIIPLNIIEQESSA
T1 sequence (looked up) 2: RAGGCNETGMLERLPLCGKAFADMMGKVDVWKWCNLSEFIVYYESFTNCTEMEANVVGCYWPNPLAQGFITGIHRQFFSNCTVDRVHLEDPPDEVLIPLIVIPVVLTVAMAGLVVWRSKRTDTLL

T2: human calcitonin receptor (human, UniProt P30988 25-474)
T2 sequence (looked up): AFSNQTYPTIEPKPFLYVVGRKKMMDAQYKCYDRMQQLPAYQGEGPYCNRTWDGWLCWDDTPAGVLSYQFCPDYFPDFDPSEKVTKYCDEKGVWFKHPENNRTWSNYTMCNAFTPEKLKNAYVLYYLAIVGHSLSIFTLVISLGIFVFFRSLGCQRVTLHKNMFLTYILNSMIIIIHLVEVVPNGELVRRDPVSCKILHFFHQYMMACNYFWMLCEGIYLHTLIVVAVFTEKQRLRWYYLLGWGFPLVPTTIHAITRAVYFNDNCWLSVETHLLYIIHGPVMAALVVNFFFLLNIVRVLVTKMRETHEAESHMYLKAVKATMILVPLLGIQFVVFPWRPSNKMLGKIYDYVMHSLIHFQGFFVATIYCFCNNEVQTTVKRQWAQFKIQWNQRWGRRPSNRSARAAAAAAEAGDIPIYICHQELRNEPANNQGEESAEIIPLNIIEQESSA


Assays:
[1] = molecular target: T1, human amylin receptor (calcitonin …); experiment: cell-based or functional assay
[2] = molecular target: T2, human calcitonin receptor; experiment: cell-based or functional assay

EC50 (cAMP production) [1]	Ratio (EC50 hCTR / EC50 hAMYR3) [1]	EC50 (cAMP production) [2]	Binder
0.479 nM	3	1.63 nM	K([γGlu-C18 diacid])KCNTATCATQRLANFL[Aib]HSSNNFGPILPPTNVGS[Aib]TY-NH2 (disulfide 3-8; N-terminus assumed; SMILES CC[C@H](C)[C@H](NC(=O)[C@@H]1CCCN1C(=O)CNC(=O)[C@H](Cc1ccccc1)NC(=O)[C@H](CC(N)=O)NC(=O)[C@H](CC(N)=O)NC(=O)[C@H](CO)NC(=O)[C@H](CO)NC(=O)[C@H](Cc1c[nH]cn1)NC(=O)C(C)(C)NC(=O)[C@H](CC(C)C)NC(=O)[C@H](Cc1ccccc1)NC(=O)[C@H](CC(N)=O)NC(=O)[C@H](C)NC(=O)[C@H](CC(C)C)NC(=O)[C@H](CCCNC(=N)N)NC(=O)[C@H](CCC(N)=O)NC(=O)[C@@H](NC(=O)[C@H](C)NC(=O)[C@@H]1CSSC[C@H](NC(=O)[C@H](CCCCN)NC(=O)[C@@H](N)CCCCNC(=O)CC[C@H](NC(=O)CCCCCCCCCCCCCCCCC(=O)O)C(=O)O)C(=O)N[C@@H](CC(N)=O)C(=O)N[C@@H]([C@@H](C)O)C(=O)N[C@@H](C)C(=O)N[C@@H]([C@@H](C)O)C(=O)N1)[C@@H](C)O)C(=O)N[C@@H](CC(C)C)C(=O)N1CCC[C@H]1C(=O)N1CCC[C@H]1C(=O)N[C@H](C(=O)N[C@@H](CC(N)=O)C(=O)N[C@H](C(=O)NCC(=O)N[C@@H](CO)C(=O)NC(C)(C)C(=O)N[C@H](C(=O)N[C@@H](Cc1ccc(O)cc1)C(N)=O)[C@@H](C)O)C(C)C)[C@@H](C)O) [Peptide 102 (SEQ ID NO: 102)]
0.364 nM	1	0.459 nM	K([γGlu-C18 diacid])KCNTATCATQRLANFL[Aib]HSSNNFGPILPPTNV[Aib]SNTY-NH2 (disulfide 3-8; N-terminus assumed; SMILES CC[C@H](C)[C@H](NC(=O)[C@@H]1CCCN1C(=O)CNC(=O)[C@H](Cc1ccccc1)NC(=O)[C@H](CC(N)=O)NC(=O)[C@H](CC(N)=O)NC(=O)[C@H](CO)NC(=O)[C@H](CO)NC(=O)[C@H](Cc1c[nH]cn1)NC(=O)C(C)(C)NC(=O)[C@H](CC(C)C)NC(=O)[C@H](Cc1ccccc1)NC(=O)[C@H](CC(N)=O)NC(=O)[C@H](C)NC(=O)[C@H](CC(C)C)NC(=O)[C@H](CCCNC(=N)N)NC(=O)[C@H](CCC(N)=O)NC(=O)[C@@H](NC(=O)[C@H](C)NC(=O)[C@@H]1CSSC[C@H](NC(=O)[C@H](CCCCN)NC(=O)[C@@H](N)CCCCNC(=O)CC[C@H](NC(=O)CCCCCCCCCCCCCCCCC(=O)O)C(=O)O)C(=O)N[C@@H](CC(N)=O)C(=O)N[C@@H]([C@@H](C)O)C(=O)N[C@@H](C)C(=O)N[C@@H]([C@@H](C)O)C(=O)N1)[C@@H](C)O)C(=O)N[C@@H](CC(C)C)C(=O)N1CCC[C@H]1C(=O)N1CCC[C@H]1C(=O)N[C@H](C(=O)N[C@@H](CC(N)=O)C(=O)N[C@H](C(=O)NC(C)(C)C(=O)N[C@@H](CO)C(=O)N[C@@H](CC(N)=O)C(=O)N[C@H](C(=O)N[C@@H](Cc1ccc(O)cc1)C(N)=O)[C@@H](C)O)C(C)C)[C@@H](C)O) [Peptide 100 (SEQ ID NO: 100)]
0.473 nM	7	3.42 nM	K([γGlu-C18 diacid])KCNTATCATQRLANFLVHSSNNFGP[Aib]LPPTNVGSNTY-NH2 (disulfide 3-8; N-terminus assumed; SMILES CC(C)C[C@H](NC(=O)[C@H](CCCNC(=N)N)NC(=O)[C@H](CCC(N)=O)NC(=O)[C@@H](NC(=O)[C@H](C)NC(=O)[C@@H]1CSSC[C@H](NC(=O)[C@H](CCCCN)NC(=O)[C@@H](N)CCCCNC(=O)CC[C@H](NC(=O)CCCCCCCCCCCCCCCCC(=O)O)C(=O)O)C(=O)N[C@@H](CC(N)=O)C(=O)N[C@@H]([C@@H](C)O)C(=O)N[C@@H](C)C(=O)N[C@@H]([C@@H](C)O)C(=O)N1)[C@@H](C)O)C(=O)N[C@@H](C)C(=O)N[C@@H](CC(N)=O)C(=O)N[C@@H](Cc1ccccc1)C(=O)N[C@@H](CC(C)C)C(=O)N[C@H](C(=O)N[C@@H](Cc1c[nH]cn1)C(=O)N[C@@H](CO)C(=O)N[C@@H](CO)C(=O)N[C@@H](CC(N)=O)C(=O)N[C@@H](CC(N)=O)C(=O)N[C@@H](Cc1ccccc1)C(=O)NCC(=O)N1CCC[C@H]1C(=O)NC(C)(C)C(=O)N[C@@H](CC(C)C)C(=O)N1CCC[C@H]1C(=O)N1CCC[C@H]1C(=O)N[C@H](C(=O)N[C@@H](CC(N)=O)C(=O)N[C@H](C(=O)NCC(=O)N[C@@H](CO)C(=O)N[C@@H](CC(N)=O)C(=O)N[C@H](C(=O)N[C@@H](Cc1ccc(O)cc1)C(N)=O)[C@@H](C)O)C(C)C)[C@@H](C)O)C(C)C) [Peptide 106 (SEQ ID NO: 106)]
0.079 nM	23	1.82 nM	K([γGlu-C18 diacid])CNTATCATQRLANFLVHSSNNFGPIL[dP]PTNVGSNTY-NH2 (disulfide 2-7) [Peptide 104 (SEQ ID NO: 104)]
1.07 nM	25	26.3 nM	K([γGlu-C18 diacid])KCNTATCATQRLANFLRHSSNNFGP[Aib]LPPTNVGSNTY-NH2 (disulfide 3-8; N-terminus assumed; SMILES CC(C)C[C@H](NC(=O)[C@H](CCCNC(=N)N)NC(=O)[C@H](CCC(N)=O)NC(=O)[C@@H](NC(=O)[C@H](C)NC(=O)[C@@H]1CSSC[C@H](NC(=O)[C@H](CCCCN)NC(=O)[C@@H](N)CCCCNC(=O)CC[C@H](NC(=O)CCCCCCCCCCCCCCCCC(=O)O)C(=O)O)C(=O)N[C@@H](CC(N)=O)C(=O)N[C@@H]([C@@H](C)O)C(=O)N[C@@H](C)C(=O)N[C@@H]([C@@H](C)O)C(=O)N1)[C@@H](C)O)C(=O)N[C@@H](C)C(=O)N[C@@H](CC(N)=O)C(=O)N[C@@H](Cc1ccccc1)C(=O)N[C@@H](CC(C)C)C(=O)N[C@@H](CCCNC(=N)N)C(=O)N[C@@H](Cc1c[nH]cn1)C(=O)N[C@@H](CO)C(=O)N[C@@H](CO)C(=O)N[C@@H](CC(N)=O)C(=O)N[C@@H](CC(N)=O)C(=O)N[C@@H](Cc1ccccc1)C(=O)NCC(=O)N1CCC[C@H]1C(=O)NC(C)(C)C(=O)N[C@@H](CC(C)C)C(=O)N1CCC[C@H]1C(=O)N1CCC[C@H]1C(=O)N[C@H](C(=O)N[C@@H](CC(N)=O)C(=O)N[C@H](C(=O)NCC(=O)N[C@@H](CO)C(=O)N[C@@H](CC(N)=O)C(=O)N[C@H](C(=O)N[C@@H](Cc1ccc(O)cc1)C(N)=O)[C@@H](C)O)C(C)C)[C@@H](C)O) [Peptide 107 (SEQ ID NO: 107)]
0.161 nM	12	1.88 nM	K([γGlu-C18 diacid])CNTATCATQRLANFLVHSSNNFGPI[dL]PPTNVGSNTY-NH2 (disulfide 2-7) [Peptide 103 (SEQ ID NO: 103)]
0.177 nM	2	0.441 nM	K([γGlu-C18 diacid])KCNTATCATQRLANFL[Aib]HSSNNFGPILPPTNVG[Aib]NTY-NH2 (disulfide 3-8; N-terminus assumed; SMILES CC[C@H](C)[C@H](NC(=O)[C@@H]1CCCN1C(=O)CNC(=O)[C@H](Cc1ccccc1)NC(=O)[C@H](CC(N)=O)NC(=O)[C@H](CC(N)=O)NC(=O)[C@H](CO)NC(=O)[C@H](CO)NC(=O)[C@H](Cc1c[nH]cn1)NC(=O)C(C)(C)NC(=O)[C@H](CC(C)C)NC(=O)[C@H](Cc1ccccc1)NC(=O)[C@H](CC(N)=O)NC(=O)[C@H](C)NC(=O)[C@H](CC(C)C)NC(=O)[C@H](CCCNC(=N)N)NC(=O)[C@H](CCC(N)=O)NC(=O)[C@@H](NC(=O)[C@H](C)NC(=O)[C@@H]1CSSC[C@H](NC(=O)[C@H](CCCCN)NC(=O)[C@@H](N)CCCCNC(=O)CC[C@H](NC(=O)CCCCCCCCCCCCCCCCC(=O)O)C(=O)O)C(=O)N[C@@H](CC(N)=O)C(=O)N[C@@H]([C@@H](C)O)C(=O)N[C@@H](C)C(=O)N[C@@H]([C@@H](C)O)C(=O)N1)[C@@H](C)O)C(=O)N[C@@H](CC(C)C)C(=O)N1CCC[C@H]1C(=O)N1CCC[C@H]1C(=O)N[C@H](C(=O)N[C@@H](CC(N)=O)C(=O)N[C@H](C(=O)NCC(=O)NC(C)(C)C(=O)N[C@@H](CC(N)=O)C(=O)N[C@H](C(=O)N[C@@H](Cc1ccc(O)cc1)C(N)=O)[C@@H](C)O)C(C)C)[C@@H](C)O) [Peptide 101 (SEQ ID NO: 101)]

Source: patent publication US20220204580A1 (AstraZeneca / MedImmune, published 2022)
